In patent publication US20100280095A1 (RIKEN, published 2010):

Molecular target: T1, endogenous Smad4 of 293T cells (UniProt Q13485 1-552)
T1 sequence (looked up): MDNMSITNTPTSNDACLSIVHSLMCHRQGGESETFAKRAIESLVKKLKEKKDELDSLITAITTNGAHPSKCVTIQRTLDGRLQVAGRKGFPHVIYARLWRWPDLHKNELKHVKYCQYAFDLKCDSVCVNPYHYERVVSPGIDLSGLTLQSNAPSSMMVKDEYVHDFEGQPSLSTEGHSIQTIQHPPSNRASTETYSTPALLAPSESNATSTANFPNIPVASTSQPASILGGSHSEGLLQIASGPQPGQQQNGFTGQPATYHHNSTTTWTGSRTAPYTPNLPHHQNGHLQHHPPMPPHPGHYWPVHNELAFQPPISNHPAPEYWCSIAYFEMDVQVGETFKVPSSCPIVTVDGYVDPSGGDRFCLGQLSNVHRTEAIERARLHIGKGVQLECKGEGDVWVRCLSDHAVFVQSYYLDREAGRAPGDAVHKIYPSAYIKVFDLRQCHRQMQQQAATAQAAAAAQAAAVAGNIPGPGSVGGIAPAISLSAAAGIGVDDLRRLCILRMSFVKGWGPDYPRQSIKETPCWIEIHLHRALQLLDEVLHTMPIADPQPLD
Assay: co-immunoprecipitation: anti-c-Myc IP of 293T whole cell extract, immunoblot with anti-Smad4
Text: (a) An interaction between c-Myc-tagged PDLIM2 and an endogenous Smad transcription factors; 293T cells were transfected with or without a c-Myc-tagged PDLIM2 expression plasmid (c-Myc PDLIM2) and treated to obtain whole cell extracts, which were immunoprecipitated (IP) with anti-c-Myc antibody, and immunoblotted (IB) with anti-Smad2, 3 or 4 antibody. (b) Luciferase activity in mouse embryonic fibroblasts; with or without a plasmid that encodes PDLIM2, the cells were transfected with a plasmid that encodes a TARE luciferase reporter (pTARE-Luc), after which the cells were stimulated with human TGFβ (10 ng/ml) for 6 hours and assayed.
All lysis buffers used for immunoblot analysis contained a proteinase inhibitor cocktail (Roche). Cytoplasmic and nuclear extracts were prepared as follows. Cells were lysed on ice for 10 min with hypotonic buffer (20 mM HEPES pH 8.0, 10 mM KCl, 1 mM MgCl₂, 0.1% Triton X-100, 20% glycerol). After centrifugation (5,000 rpm, 1 min), supernatants were collected and used as cytoplasmic fractions. The pellets were next lysed on ice for 20 min after brief vortexing with hypertonic buffer (20 mM HEPES pH 8.0, 1 mM EDTA, 20% glycerol, 0.1% Triton X-100, 400 mM NaCl). After centrifugation (15,000 rpm, 5 min), supernatants were collected and used as nuclear fractions. […]

B1: c-Myc-tagged PDLIM2 (murine Pdlim2 coding region in pCMV-Myc) (enzyme)
chain: MALTVDVAGPAPWGFRISGGRDFHTPIIVTKVTERGKAEAADLRPGDIIVAINGQSAENMLHAEAQSKIRQSASPLRLQLDRSQTASPGQTNGEGSLEVLATRFQGSLRTHRDSQSSQRSACFSPVSLSPRPCSPFSTPPPTSPVALSKEDMIGCSFQSLTHSPGLAAAHHLTYPGHPTSQQAGHSSPSDSAVRVLLHSPGRPSSPRFSSLDLEEDSEVFKMLQENRQGRAAPRQSSSFRLLQEALEAEERGGTPAFVPSSLSSQASLPTSRALATPPKLHTCEKCSVNISNQAVRIQEGRYRHPGCYTCADCGLNLKMRGHFWVGNELYCEKHARQRYSMPGTLNSRA
notes: Expressed in 293T cells and tested in whole cell extracts; also called c-Myc PDLIM2; PDZ and LIM domain protein-2; not shown: c-Myc tag from vector pCMV-Myc (Clontech)
binding result: no binding
